Tests used:
[1] = test system: CC(C)=CCC/C(C)=C/CC/C(C)=C/CC/C(C)=C/C=C\C=C(/C)CC/C=C(\C)CC/C=C(\C)CCC=C(C)C; experiment: purified protein; settings: 150 µM FAD, phytoene 0.8-9.2 µM (apparent bulk concentration) in phosphatidyl-choline liposomes, aerobic, phosphate pH 8.0, 100 mM NaCl, 37 °C, 12 min, not saturated
[2] = test system: Cc1cc2nc3c(=O)[nH]c(=O)nc-3n(C[C@H](O)[C@H](O)[C@H](O)COP(=O)(O)OP(=O)(O)OC[C@H]3O[C@@H](n4cnc5c(N)ncnc54)[C@H](O)[C@@H]3O)c2cc1C; experiment: purified protein; settings: phytoene 7 µM (7.5 µM in Figure 4 legend) in phosphatidyl-choline liposomes, aerobic, phosphate pH 8.0, 100 mM NaCl, 37 °C, 12 min, varied: cofactor

Substance CRTI (CRTI-His6) (Pantoea ananatis) has a Km [1] of 16.7 ± 1.9 µM and a Km [2] of 50.5 ± 2.9 µM.
